Here are results for two molecules from patent US20120114639A1, “COMPOSITIONS AND METHODS FOR INHIBITING VIRAL AND/OR BACTERIAL INFECTIONS” (priority 2010, published 2012).

This experiment has as its system HPV16. Kind of experiment: HPV16 PsV infection of HaCaT cells, luciferase assay. The format is cell-based, human papillomavirus. The procedure: FIG. 2. […] (A, B) Immunoblot for syndecan-1 (polyclonal syndecan-1 Ab) after 24 hours at 37° C. in CM (A) or post starvation in SFM and after six hours at 37° C. in Tyrode's Buffer (B); immunoblot for HPV16 L1 released into CM post virus binding for indicated times (C) or 24 hours (E). […] Cells were untreated (U) or pre-treated with BM or MM for one hour, then exposed to HPV16 PsV in the presence of inhibitors in CM. Infection was assayed by quantifying luciferase levels at 24 hours p.i. (F). Data are represented as mean±SEM of three experiments. (G-H) IC50 of HPV16 infectivity inhibition by MMIP inhibitors batimastat and mariniastat. […] HPV16 infection was measured with luciferase assay. […]
FIG. 7. […] Cells were exposed to HPV16 PsV at 100 vge/cell for one hour at 4° C., then washed extensively and shifted to 37° C. in the presence of the indicated inhibitor in CM for 24 hours at which time they were analyzed for luciferase expression. […] (B-C) EGFR knockdown was accomplished using siRNA to EGFR and the percent of EGFR protein remaining in EGFR-siRNA transfected HaCaT cells was determined by immunoblot and compared by densitometry to EGFR levels in cells transfected with a negative control siRNA at 48 hours post transfection. Four separate transfections were analyzed (B) and HPV16 PsV infection levels were measured at 24 hours post infection (48 hours post transfection) in each (C). […]

B1: TIMP3: blocks MMP activity (protein, UniProt P35625 24-211, looked up)
Metalloproteinase inhibitor 3: CTCSPSHPQDAFCNSDIVIRAKVVGKKLVKEGPFGTLVYTIKQMKMYRGFTKMPHVQYIHTEASESLCGLKLEVNKYQYLLTGRVYDGKMYTGLCNFVERWDQLTLSQRKGLNYRYHLGCNCKIKSCYYLPCFVTSKNECLWTDMLSNFGYPGYQSKHYACIRQKGGYCSWYRGWAPPDKSIINATDP
In the case of B1, the “HPV16 infection of HaCaT cells (in words)” value (CM, luciferase 24 hours p.i.) is on record as “can prevent HPV16 infection”.

B2: KGF: keratinocyte growth factor, GFR ligand (protein, UniProt P21781 32-194, looked up)
Fibroblast growth factor 7: CNDMTPEQMATNVNCSSPERHTRSYDYMEGGDIRVRRLFCRTQWYLRIDKRGKVKGTQEMKNNYNIMEIRTVAVGIVAIKGVESEFYLAMNKEGKLYAKKECNEDCNFKELILENHYNTYASAKWTHNGGEMFVALNQKGIPVRGKKTKKEQKTAHFLPMAIT
Consider B2, for which the “restoration of HPV16 infectivity in SFM by added factor” value (serum-starved HaCaT, HPV16 bound in SFM, 24 hours in SFM plus factor, compared to CM) is listed as “partially restore infection levels”.
